Entries after “also recorded” stand apart in the source; their conditions may differ.
B1: EpCAM-AsiC: EpCAM aptamer-siRNA chimera, siRNA cargo not specified at the place; 2'-fluoropyrimidines, 3'-dTdT (nucleic acid)
sense: GCGACUGGUUACCCGGUCGUUUUGAAGAAGAUCACCCUCCUUATT
antisense: UAAGGAGGGUGAUCUUCUUCATT
modifications: DNA at T, 2'-fluoro at CU, RNA at AG, backbone not given here; further chemistry not fully specified
notes: EpCAM aptamer-siRNA chimera, siRNA cargo not specified at the place; 2'-fluoropyrimidines, 3'-dTdT
B2: PLK1 EpCAM-AsiC: EpCAM aptamer linked by U-U-U to PLK1 siRNA sense strand (SEQ ID NO: 1), annealed to antisense strand (SEQ ID NO: 2) (nucleic acid)
sense: B1 sense
antisense: UAAGGAGGGUGAUCUUCUUCATT
modifications: DNA at T, 2'-fluoro at CU, RNA at AG, backbone not given here; EpCAM aptamer fused to sense strand

Experiments:
[1] = system: human breast tumor and normal breast tissue biopsies; assay: Uptake in human breast tumor and normal tissue biopsy explants; assay type: cell-based; details: 2 μM; 24 h; flow cytometry of single cell suspensions
Text: It was next examined whether EpCAM-AsiCs concentrate in human breast tumors relative to normal breast samples within intact tissues. Paired normal tissue and breast tumor biopsies from 3 breast cancer patients were cut into cubes with −3 mm edges and placed in Petri dishes. The tumor sample cells were all EpCAM^bright and the normal tissue cells were EpCAM^dim (FIG. 3A). Fluorescently labeled Alexa647-siRNAs (not expected to be taken up by either normal tissue or tumor), Alexa647-cholesterol-conjugated siRNAs (chol-siRNAs, expected to be taken up by both), or Cy3-EpCAM-AsiCs were added to the culture medium and the tissues were incubated for 24 hr before harvest. The Cy3 signal of the AsiC, which could be visualized by the naked eye, concentrated only in the tumor specimens and was not detected in normal tissue (FIG. 3B). To quantify RNA uptake, flow cytometry analysis was performed on washed single cell suspensions of the tissue specimens (representative tumor-normal tissue pair (FIG. 3C), mean±SD of triplicate biospies from 3 EpCAM^bright paired breast tumor-normal tissue samples (FIG. 3D)). […] Thus, within intact tissue, EpCAM-AsiCs are selectively delivered to EpCAM^bright tumors relative to normal tissue. […]

[2] = system: eGFP expression in BPLER and BPE cells; assay: eGFP knockdown in GFP-expressing BPLER and BPE cells; assay type: cell-based, human; details: AsiC 4 μM without lipid; siRNA 100 nM with Dharmafect; 72 hours
Procedure: FIG. 21A depicts the design of EpCAM-AsiC, containing an EpCAM aptamer and a PLK1 siRNA (sense strand disclosed as SEQ ID NO: 1 and antisense strand disclosed as SEQ ID NO: 2). […] EpCAM-AsiC targeting GFP was Alexa647 or Cy3 labeled at the 3′ end of the antisense siRNA strand and incubated with BPLER and BPE cells. Uptake was assessed 24 hours later by flow cytometry (FIG. 21C). Data are representative of 3 independent experiments. Cy3 and Alexa647-labeled EpCAM-AsiC was taken up by MB468 and BPLER (EpCAM+ cells) respectively and not by BPE (EpCAM−). MFI of each peak is shown (mock, gray). FIG. 21D depicts graphs of experiments in which, to test for gene silencing, BPLER and BPE were treated with EpCAM-AsiC targeting GFP (4 μM) and compared to Transfection controls using Dharmafect and GFP-siRNA (100 nM). Knockdown was assessed by flow cytometry 72 hours after incubation. Controls were mock and Dhrmafect only treatment (lipid). (n=4).
For uptake and silencing treatment, cells were plated at low density (10,000 cells/well in 96-well plates) and treated immediately. All AsiC and siRNA treatments were performed in either OptiMEM or WIT medium. Cell viability was assessed by CellTiter-Glo (Promega) or by Trypan-Blue staining in 96-well plates.
Cells were transfected with Dharmafect I per the manufacturer's protocol. See FIG. 9 for all siRNA sequences.

[3] = system: basal-B TNBC cells (MB436, MB231); assay: Tumor initiation by ex vivo treated EpCAM− basal-B cells in nude mice; details: cells treated ex vivo overnight, then implanted; listed as PLK1 EpCAM-AsiCs
Text: EpCAM was chosen for targeting in part because EpCAM marks T-ICs and metastasis-initiating cells (M-IC).^20,22,26,27,31 To investigate whether EpCAM-AsiCs inhibit T-ICs, we compared colony and mammosphere formation (T-IC functional surrogate assays) after mock treatment, treatment with paclitaxel or with EpCAM-AsiCs against eGFP or PLK1. […] T-IC inhibition was specific, since eGFP AsiCs had no effect. […] To evaluate the effect of EpCAM-AsiCs on tumor initiation, EpCAM+MB468 cells stably expressing luciferase were treated overnight with medium or PLK1 or eGFP EpCAM-AsiCs and equal numbers of viable cells were then implanted sc in nude mice. […] Thus PLK1 EpCAM-AsiCs inhibit in vitro T-IC assays and tumor initiation selectively for EpCAM+ breast cancers.
EpCAM-AsiCs inhibit T-ICs of EpCAM+ tumors. EpCAM was chosen for targeting partly because EpCAM marks T-ICs and metastasis-initiating cells (M-IC). To investigate whether EpCAM-AsiCs inhibit T-ICs, we compared colony and mammosphere formation (T-IC functional surrogates) after mock treatment, treatment with paclitaxel or with EpCAM-AsiCs against eGFP or PLK1. […] To evaluate EpCAM-AsiC's effect on tumor initiation, viable luc+ EpCAM+ MB468 and EpCAM− MB231 cells, treated overnight with medium or PLK1 or GFP EpCAM-AsiCs, were implanted sc in nude mice. […] Thus EpCAM-AsiCs inhibit tumor initiation in EpCAM+ breast cancers.

breast cancer cell lines [4] = assay: Colony formation assay; assay type: cell-based, human; details: AsiC 4 uM, paclitaxel 100 nM
Procedure: (§1) For colony formation assay, 1,000 viable cells were treated for 6 h in round bottom 96-well plates and then transferred to 10-cm plates in serum-containing medium. Medium was replaced every 3 d. After 8-14 d, cells were fixed in methanol (−20 C) and stained with crystal violet. For sphere formation assay, 1,000/ml viable cells were treated for 6 h in round bottom 96-well plates and then cultured in suspension in serum-free DMEM/F12 1:1 (Invitrogen), supplemented with EGF (20 ng/ml, BD Biosciences), B27 (1:50, Invitrogen), 0.4% bovine serum albumin (Sigma) and 4 μg/ml insulin (Sigma). Spheres were counted after 1 or 2 weeks.

breast cancer cell lines [5] = assay: Sphere (mammosphere) formation assay; assay type: cell-based, human
Procedure: as §1

[6] = listed as EpCAM-AsiC targeting PLK1

| Molecule | uptake by breast tumor vs normal tissue [1] | eGFP knockdown, BPLER vs BPE [2] | tumor initiation, EpCAM− basal-B cells [3] | colony formation, EpCAM+ basal-A and luminal lines (breast cancer cell lines [4]; [6]) | colony formation, EpCAM− basal-B lines (breast cancer cell lines [4]; [6]) | colony formation, EpCAM+ basal-A and luminal lines (breast cancer cell lines [4]; listed as PLK1 EpCAM-AsiCs) | colony formation, EpCAM− basal-B lines (breast cancer cell lines [4]; listed as PLK1 EpCAM-AsiCs) | sphere/mammosphere formation, EpCAM+ basal-A and luminal lines (breast cancer cell lines [5]; [6]) | sphere/mammosphere formation, EpCAM− basal-B lines (breast cancer cell lines [5]; [6]) | sphere/mammosphere formation, EpCAM+ basal-A and luminal lines (breast cancer cell lines [5]; listed as PLK1 EpCAM-AsiCs) | sphere/mammosphere formation, EpCAM− basal-B lines (breast cancer cell lines [5]; listed as PLK1 EpCAM-AsiCs) |
| --- | --- | --- | --- | --- | --- | --- | --- | --- | --- | --- | --- |
| B1 | concentrated only in the tumors | uniform and selective for EpCAM+ cells | – | – | – | – | – | – | – | – | – |
| B2 | – | – | had no effect on basal-B TNBC tumor initiation; also recorded: only in EpCAM+ tumors | lost the ability to form colonies; also recorded: only eliminated colony formation in luminal (MCF7) and basal A (HCC1954) cells | did not effect colony formation | more strongly inhibited colony and mammosphere formation of EpCAM+ basal-A TNBCs and luminal cell lines than paclitaxel; also recorded: eliminated mammosphere and colony formation; also recorded: more strongly inhibited colony and mammosphere formation of multiple EpCAM+ basal-like TNBCs and a luminal cell line than paclitaxel | inactive against EpCAM− basal-B TNBCs | specifically inhibited sphere formation in basal A and luminal; also recorded: decreased the number of spheres only in basal A and luminal cells | had no effect on basal B cells | more strongly inhibited colony and mammosphere formation of EpCAM+ basal-A TNBCs and luminal cell lines than paclitaxel; also recorded: eliminated mammosphere and colony formation; also recorded: more strongly inhibited colony and mammosphere formation of multiple EpCAM+ basal-like TNBCs and a luminal cell line than paclitaxel | inactive against EpCAM− basal-B TNBCs |
